Measured values from patent US20030068675, “Position dependent recognition of GNN nucleotide triplets by zinc fingers” (published 2003).

Columns and labels:
Test in all cases: EMSA
Settings in all cases: tags: MBP fusion
ZFP SBS#1408 = target: T1, ZFP SBS#1408 (synthetic)
T1 chain: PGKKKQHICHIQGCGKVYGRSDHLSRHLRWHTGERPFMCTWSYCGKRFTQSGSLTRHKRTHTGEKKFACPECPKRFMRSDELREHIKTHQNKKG
Procedure, shortened: (§1)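 Purified ZFP was titrated against labeled double-stranded target (1 nM or lower, at least 10-fold below expected Kd) carrying the natural binding site with flanks. Binding buffer was 10 mM Tris pH 7.5, 100 mM KCl, 1 mM MgCl2, 0.1 mM ZnCl2, 5 mM DTT, 10% glycerol, 0.02% BSA, with equilibration for at least 45 min. Bound and free target were separated on a 10% polyacrylamide gel.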

ZFP SBS#1409 = target: T2, ZFP SBS#1409 (synthetic)
T2 chain: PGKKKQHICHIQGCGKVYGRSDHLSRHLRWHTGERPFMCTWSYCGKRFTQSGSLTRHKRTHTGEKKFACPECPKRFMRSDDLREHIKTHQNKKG
Procedure, shortened: as §1

ZFP SBS#1418 = target: T3, ZFP SBS#1418 (synthetic)
T3 chain: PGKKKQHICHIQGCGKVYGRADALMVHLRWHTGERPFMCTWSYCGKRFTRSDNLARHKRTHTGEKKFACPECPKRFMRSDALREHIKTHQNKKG
Procedure, shortened: as §1

ZFP SBS#1402 = target: T4, ZFP SBS#1402 (synthetic)
T4 chain: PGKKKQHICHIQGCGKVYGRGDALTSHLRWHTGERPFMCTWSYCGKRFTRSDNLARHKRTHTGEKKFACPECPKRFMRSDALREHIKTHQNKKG
Procedure, shortened: as §1

ZFP SBS#1416 = target: T5, ZFP SBS#1416 (synthetic)
T5 chain: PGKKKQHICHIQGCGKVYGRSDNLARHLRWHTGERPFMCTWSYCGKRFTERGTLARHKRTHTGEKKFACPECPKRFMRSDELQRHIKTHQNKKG
Procedure, shortened: as §1

ZFP SBS#1415 = target: T6, ZFP SBS#1415 (synthetic)
T6 chain: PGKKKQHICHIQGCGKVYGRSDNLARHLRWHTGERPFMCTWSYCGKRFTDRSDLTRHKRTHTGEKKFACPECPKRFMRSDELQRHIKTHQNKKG
Procedure, shortened: as §1

ZFP SBS#1412 = target: T7, ZFP SBS#1412 (synthetic)
T7 chain: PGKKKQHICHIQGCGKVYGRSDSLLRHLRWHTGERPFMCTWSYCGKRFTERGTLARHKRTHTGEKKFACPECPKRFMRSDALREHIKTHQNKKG
Procedure, shortened: as §1

ZFP SBS#1434 = target: T8, ZFP SBS#1434 (synthetic)
T8 chain: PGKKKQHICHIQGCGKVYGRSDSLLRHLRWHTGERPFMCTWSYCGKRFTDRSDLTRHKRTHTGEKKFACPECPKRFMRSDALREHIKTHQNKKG
Procedure, shortened: as §1

ZFP SBS#1435 = target: T9, ZFP SBS#1435 (synthetic)
T9 chain: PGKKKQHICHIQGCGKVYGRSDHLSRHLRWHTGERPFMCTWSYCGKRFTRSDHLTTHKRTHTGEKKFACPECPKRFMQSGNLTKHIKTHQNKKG
Procedure, shortened: as §1

ZFP SBS#1398 = target: T10, ZFP SBS#1398 (synthetic)
T10 chain: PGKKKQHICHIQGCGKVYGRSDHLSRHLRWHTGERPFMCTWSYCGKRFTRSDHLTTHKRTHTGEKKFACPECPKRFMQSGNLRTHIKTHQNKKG
Procedure, shortened: as §1

ZFP SBS#1436 = target: T11, ZFP SBS#1436 (synthetic, UniProt P08047)
T11 chain: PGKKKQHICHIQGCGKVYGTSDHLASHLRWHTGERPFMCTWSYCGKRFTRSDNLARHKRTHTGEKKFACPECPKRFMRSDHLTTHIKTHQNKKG
Procedure, shortened: as §1

ZFP SBS#1399 = target: T12, ZFP SBS#1399 (synthetic, UniProt P08047)
T12 chain: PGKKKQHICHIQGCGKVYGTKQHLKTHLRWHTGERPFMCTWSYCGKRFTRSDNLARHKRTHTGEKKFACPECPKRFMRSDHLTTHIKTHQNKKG
Procedure, shortened: as §1

ZFP SBS#1427 = target: T13, ZFP SBS#1427 (synthetic)
T13 chain: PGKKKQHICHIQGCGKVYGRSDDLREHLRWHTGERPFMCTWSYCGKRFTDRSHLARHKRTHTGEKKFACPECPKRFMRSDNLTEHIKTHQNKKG
Procedure, shortened: as §1

ZFP SBS#1424 = target: T14, ZFP SBS#1424 (synthetic)
T14 chain: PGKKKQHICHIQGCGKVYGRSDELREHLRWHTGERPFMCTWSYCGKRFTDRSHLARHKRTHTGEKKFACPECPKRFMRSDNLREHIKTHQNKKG
Procedure, shortened: as §1

ZFP SBS#1414 = target: T15, ZFP SBS#1414 (synthetic)
T15 chain: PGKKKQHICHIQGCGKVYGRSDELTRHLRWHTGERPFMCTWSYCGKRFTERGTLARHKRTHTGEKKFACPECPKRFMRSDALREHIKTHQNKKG
Procedure, shortened: as §1

ZFP SBS#1413 = target: T16, ZFP SBS#1413 (synthetic)
T16 chain: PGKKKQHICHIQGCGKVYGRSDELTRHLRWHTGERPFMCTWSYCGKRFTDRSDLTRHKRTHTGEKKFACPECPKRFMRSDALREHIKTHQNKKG
Procedure, shortened: as §1

ZFP SBS#1410 = target: T17, ZFP SBS#1410 (synthetic, UniProt P08047)
T17 chain: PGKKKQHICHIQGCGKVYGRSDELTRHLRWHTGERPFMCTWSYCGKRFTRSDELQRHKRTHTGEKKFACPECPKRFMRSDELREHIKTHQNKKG
Procedure, shortened: as §1

ZFP SBS#1439 = ZFP SBS#1439 (synthetic)
Chain of ZFP SBS#1439 (synthetic) (chain, as listed by the source): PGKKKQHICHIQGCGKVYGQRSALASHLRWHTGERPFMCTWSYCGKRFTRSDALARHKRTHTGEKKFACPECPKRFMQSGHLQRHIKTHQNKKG
Procedure, shortened: as §1

ZFP SBS#1440 = ZFP SBS#1440 (synthetic)
Chain of ZFP SBS#1440 (synthetic) (chain, as listed by the source): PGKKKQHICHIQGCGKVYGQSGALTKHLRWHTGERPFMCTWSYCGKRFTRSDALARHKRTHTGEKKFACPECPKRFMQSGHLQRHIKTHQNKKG
Procedure, shortened: as §1

ZFP SBS#1407 = ZFP SBS#1407 (synthetic)
Chain of ZFP SBS#1407 (synthetic) (chain, as listed by the source): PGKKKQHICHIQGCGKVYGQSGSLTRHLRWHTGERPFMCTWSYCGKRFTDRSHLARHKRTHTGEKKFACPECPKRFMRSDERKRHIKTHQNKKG
Procedure, shortened: as §1

ZFP SBS#1422 = target: T18, ZFP SBS#1422 (synthetic)
T18 chain: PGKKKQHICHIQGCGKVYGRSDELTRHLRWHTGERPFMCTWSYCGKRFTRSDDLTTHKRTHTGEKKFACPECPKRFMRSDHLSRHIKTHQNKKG
Procedure, shortened: as §1

ZFP SBS#1423 = target: T19, ZFP SBS#1423 (synthetic)
T19 chain: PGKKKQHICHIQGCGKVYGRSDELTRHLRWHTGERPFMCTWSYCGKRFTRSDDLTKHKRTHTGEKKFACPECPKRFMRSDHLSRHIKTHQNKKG
Procedure, shortened: as §1

ZFP SBS#1405 = target: T20, ZFP SBS#1405 (synthetic)
T20 chain: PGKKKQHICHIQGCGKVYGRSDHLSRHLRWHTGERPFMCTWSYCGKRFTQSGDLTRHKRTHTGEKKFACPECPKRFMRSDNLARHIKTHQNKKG
Procedure, shortened: as §1

ZFP SBS#1404 = target: T21, ZFP SBS#1404 (synthetic)
T21 chain: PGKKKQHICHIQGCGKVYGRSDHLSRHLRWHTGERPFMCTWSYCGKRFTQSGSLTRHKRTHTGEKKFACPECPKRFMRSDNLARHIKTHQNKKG
Procedure, shortened: as §1

ZFP SBS#1431 = target: T22, ZFP SBS#1431 (synthetic)
T22 chain: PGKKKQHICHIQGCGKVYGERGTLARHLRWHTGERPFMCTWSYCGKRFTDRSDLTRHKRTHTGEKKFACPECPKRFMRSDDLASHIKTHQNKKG
Procedure, shortened: as §1

ZFP SBS#1432 = target: T23, ZFP SBS#1432 (synthetic)
T23 chain: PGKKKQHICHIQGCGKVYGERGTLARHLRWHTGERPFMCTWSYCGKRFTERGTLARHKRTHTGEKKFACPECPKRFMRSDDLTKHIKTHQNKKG
Procedure, shortened: as §1

ZFP SBS#1430 = target: T24, ZFP SBS#1430 (synthetic)
T24 chain: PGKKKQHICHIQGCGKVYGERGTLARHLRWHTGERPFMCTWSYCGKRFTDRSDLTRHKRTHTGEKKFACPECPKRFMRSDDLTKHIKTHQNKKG
Procedure, shortened: as §1

ZFP SBS#1401 = target: T25, ZFP SBS#1401 (synthetic)
T25 chain: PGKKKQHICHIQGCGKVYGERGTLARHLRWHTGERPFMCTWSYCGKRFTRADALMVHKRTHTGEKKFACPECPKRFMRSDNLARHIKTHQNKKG
Procedure, shortened: as §1

ZFP SBS#1417 = target: T26, ZFP SBS#1417 (synthetic)
T26 chain: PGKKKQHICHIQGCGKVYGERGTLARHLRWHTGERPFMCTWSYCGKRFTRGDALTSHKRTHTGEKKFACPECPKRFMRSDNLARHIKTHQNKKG
Procedure, shortened: as §1

ZFP SBS#1406 = ZFP SBS#1406 (synthetic)
Chain of ZFP SBS#1406 (synthetic) (chain, as listed by the source): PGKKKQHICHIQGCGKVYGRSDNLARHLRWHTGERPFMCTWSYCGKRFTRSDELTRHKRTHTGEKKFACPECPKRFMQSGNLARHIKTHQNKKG
Procedure, shortened: as §1

ZFP SBS#1441 = ZFP SBS#1441 (synthetic)
Chain of ZFP SBS#1441 (synthetic) (chain, as listed by the source): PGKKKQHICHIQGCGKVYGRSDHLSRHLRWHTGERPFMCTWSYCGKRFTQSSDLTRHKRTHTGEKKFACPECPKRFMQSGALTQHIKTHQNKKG
Procedure, shortened: as §1

ZFP SBS#1429 = ZFP SBS#1429 (synthetic)
Procedure, shortened: as §1

ZFP SBS#1428 = ZFP SBS#1428 (synthetic)
Procedure, shortened: as §1

ZFP SBS#1411 = ZFP SBS#1411 (synthetic)
Procedure, shortened: as §1

B1: CCGGCAGGG (dsDNA)
DNA 1: CCGGCAGGG
DNA 2: CCCTGCCGG
Kd (ZFP SBS#1408): 0.305 nM
Kd (ZFP SBS#1409): 0.153 nM

B2: CTGGAGTTG (dsDNA)
DNA 1: CTGGAGTTG
DNA 2: CAACTCCAG
Kd (ZFP SBS#1418): 0.241 nM
Kd (ZFP SBS#1402): 0.15 nM

B3: GCGGCCGAG (dsDNA)
DNA 1: GCGGCCGAG
DNA 2: CTCGGCCGC
Kd (ZFP SBS#1416): 0.153 nM
Kd (ZFP SBS#1415): 0.102 nM

B4: CTGGCCGTG (dsDNA)
DNA 1: CTGGCCGTG
DNA 2: CACGGCCAG
Kd (ZFP SBS#1412): 0.172 nM
Kd (ZFP SBS#1434): 0.051 nM

B5: TAATGGGGG (dsDNA)
DNA 1: TAATGGGGG
DNA 2: CCCCCATTA
Kd (ZFP SBS#1435): 0.057 nM
Kd (ZFP SBS#1398): 0.065 nM

B6: TGGGAGTGT (dsDNA)
DNA 1: TGGGAGTGT
DNA 2: ACACTCCCA
Kd (ZFP SBS#1436): 0.026 nM
Kd (ZFP SBS#1399): 0.1 nM

B7: CAGGGCCCG (dsDNA)
DNA 1: CAGGGCCCG
DNA 2: CGGGCCCTG
Kd (ZFP SBS#1427): 0.271 nM
Kd (ZFP SBS#1424): 1.37 nM

B8: CTGGCCGCG (dsDNA)
DNA 1: CTGGCCGCG
DNA 2: CGCGGCCAG
Kd (ZFP SBS#1414): 0.914 nM
Kd (ZFP SBS#1413): 0.152 nM

B9: CCGGCGGCG (dsDNA)
DNA 1: CCGGCGGCG
DNA 2: CGCCGCCGG
Kd (ZFP SBS#1410): 0.814 nM

B10: GGAGTGTTA (dsDNA)
DNA 1: GGAGTGTTA
DNA 2: TAACACTCC
Kd (ZFP SBS#1439): 0.075 nM
Kd (ZFP SBS#1440): 0.035 nM

B11: GCGGGCGCA (dsDNA)
DNA 1: GCGGGCGCA
DNA 2: TGCGCCCGC
Kd (ZFP SBS#1407): 0.585 nM

B12: GGGTCGGCG (dsDNA)
DNA 1: GGGTCGGCG
DNA 2: CGCCGACCC
Kd (ZFP SBS#1422): 0.064 nM
Kd (ZFP SBS#1423): 0.034 nM

B13: GAGGCAGGG (dsDNA)
DNA 1: GAGGCAGGG
DNA 2: CCCTGCCTC
Kd (ZFP SBS#1405): 0.045 nM
Kd (ZFP SBS#1404): 0.022 nM

B14: TCGGCCGCC (dsDNA)
DNA 1: TCGGCCGCC
DNA 2: GGCGGCCGA
Kd (ZFP SBS#1431): 6.17 nM
Kd (ZFP SBS#1432): 1.78 nM
Kd (ZFP SBS#1430): 0.352 nM

B15: GAGTTGGCC (dsDNA)
DNA 1: GAGTTGGCC
DNA 2: GGCCAACTC
Kd (ZFP SBS#1401): 0.167 nM
Kd (ZFP SBS#1417): 1.4 nM

B16: GAAGCGGAG (dsDNA)
DNA 1: GAAGCGGAG
DNA 2: CTCCGCTTC
Kd (ZFP SBS#1406): 0.025 nM

B17: ATAGCTGGG (dsDNA)
DNA 1: ATAGCTGGG
DNA 2: CCCAGCTAT
Kd (ZFP SBS#1441): 0.262 nM

B18: TGAGGCGAG (dsDNA)
DNA 1: TGAGGCGAG
DNA 2: CTCGCCTCA
Kd (ZFP SBS#1429): 0.074 nM
Kd (ZFP SBS#1428): 0.102 nM
Kd (ZFP SBS#1411): 0.282 nM
